This is an account of results in PMC11538689 (2024).

Assay [1] has as its target nanobody‐based trispecific T cell engager (Nb‐TriTE) (human, UniProt P01857 = IgG part). The assay can be described thus: SPR.
The target in the next assay is Muromonab. The assay can be described thus: SPR. Background: In SPR one partner is held on a chip, and binding of the other changes the refractive index at the surface.

B1: rhCD3 (protein)
chain: DGNEEMGGITQTPYKVSISGTTVILTCPQYPGSEILWQHNDKNIGGDEDDKNIGSDEDHLSLKEFSELEQSGYYVCYPRGSKPEDANFYLYLRARVCENCMEMD
The Kd is the constant that tells how readily two partners part at equilibrium. Low values mean tighter binding, high ones weaker binding. With B1, the dissociation constant (Kd) was found to be 0.337 nM in assay [1] and 7.68 nM with Muromonab.
